T1: recombinant human IL6R-his (human, UniProt P08887 20-365)
T1 construct: In house made; the entry includes the C-terminal His tag; also called human IL6R-his protein
T1 sequence: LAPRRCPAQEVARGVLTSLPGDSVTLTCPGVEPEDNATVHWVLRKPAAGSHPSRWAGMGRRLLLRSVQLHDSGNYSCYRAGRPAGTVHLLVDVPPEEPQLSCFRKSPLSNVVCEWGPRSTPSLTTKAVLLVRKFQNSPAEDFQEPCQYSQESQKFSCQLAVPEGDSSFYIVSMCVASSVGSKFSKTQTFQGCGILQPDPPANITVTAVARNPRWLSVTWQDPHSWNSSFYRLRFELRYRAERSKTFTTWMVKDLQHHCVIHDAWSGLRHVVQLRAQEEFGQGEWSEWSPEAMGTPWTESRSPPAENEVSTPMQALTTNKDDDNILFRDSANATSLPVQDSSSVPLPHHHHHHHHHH

T2: macaca IL6R-his protein (macaca mulatta)
T2 chain: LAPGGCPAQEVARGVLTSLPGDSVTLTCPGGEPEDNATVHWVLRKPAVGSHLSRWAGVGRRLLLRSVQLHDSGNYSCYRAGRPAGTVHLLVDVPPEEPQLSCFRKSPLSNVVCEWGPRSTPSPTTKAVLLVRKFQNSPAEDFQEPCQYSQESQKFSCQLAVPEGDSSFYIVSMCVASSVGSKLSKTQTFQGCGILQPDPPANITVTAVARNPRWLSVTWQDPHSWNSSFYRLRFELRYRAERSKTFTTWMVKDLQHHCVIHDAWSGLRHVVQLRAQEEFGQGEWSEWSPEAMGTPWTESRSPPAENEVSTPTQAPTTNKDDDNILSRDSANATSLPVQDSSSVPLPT


Assays:
[1] = molecular target: T1, recombinant human IL6R-his; test: SPR Biacore; antibody from diluted cell supernatant captured by anti-human IgG on CM5, human IL6R in flow
Experimental: (§1) Un-reacted moieties on the biosensor surface were blocked with ethanolamine. […] Then, serially diluted recombinant human IL6R-his (in house made, amino acid sequence set forth in SEQ ID NO: 44) or macaca IL6R-his protein (in house made, amino acid sequence set forth in SEQ ID NO: 45), starting at 100 nM with a 2-fold serial dilution in HBS-EP⁺ buffer (provided by Biacore), was flowed onto the chip at a flow rate of 30 μL/min. The antigen-antibody association kinetics was followed for 2 minutes and the dissociation kinetics was followed for 10 minutes. The association and dissociation curves were fit to a 1:1 Langmuir binding model using BIAcore evaluation software.
(§2) Cell supernatants containing humanized antibodies were harvested after six days in shaking flasks and directly subjected to BIAcore test following the protocol described above with modifications.

[2] = molecular target: T1, recombinant human IL6R-his; test: SPR Biacore; antibody at 10 ug/ml captured by anti-human IgG on CM5, human IL6R in flow
Experimental: as §1, §2

human IL6R-Fc protein [3] = molecular target: T3, human IL6R-Fc protein (human, biotin-labeled in the ELISAs (sites not given)); test: capture ELISA: antibody captured on anti-IgG F(ab')2 coated plate, then biotin-labeled human IL6R-Fc, streptavidin-HRP
T3 construct: In house made; also called biotin-labeled human IL6R-Fc protein
Experimental: For the capture ELISA, 96-well micro plates were coated with 2 μg/ml AffiniPure Goat Anti-Mouse IgG, F(ab′)₂ fragment specific (Jackson ImmunoResearch Laboratories, Inc., Cat #115-005-072) in PBS, 100 μl/well, and incubated for 2 hours at 37° C. Plates were washed once with wash buffer (PBS+0.05% v/v Tween-20, PBST) and then blocked with 200 μl/well blocking buffer (5% w/v non-fatty milk in PBST) overnight at 4° C. […] Plates containing captured anti-IL6R antibodies were incubated with biotin-labeled human IL6R-Fc protein (prepared in house, SEQ ID NO: 43, 39.5 ng/ml in 2.5% w/v non-fatty milk in PBST, 100 μl/well) for 40 minutes at 37° C., washed 4 times, and incubated with streptavidin conjugated HRP (1:10000 dilution in PBST, Jackson ImmunoResearch Laboratories, Inc., Cat #016-030-084, 100 μl/well) for 40 minutes at 37° C. After a final wash, plates were incubated with 100 μl/well ELISA substrate TMB (InnoReagents, Cat #TMB-S-002). The reaction was stopped 3-10 minutes later at room temperature with 50 μl/well 1M H₂SO₄, and the absorbance of each well was read on a microplate reader using dual wavelength mode at 450 nm for TMB and 630 nm as the reference wavelength. Then the OD (450-630) values were plotted against antibody concentration. Data was analyzed using Graphpad Prism software and EC₅₀ values were reported.
For the capture ELISA, AffiniPure Goat Anti-Human IgG, F(ab′)₂ fragment specific (Jackson Immuno Research, Cat #109-005-097) was used instead of AffiniPure Goat Anti-Mouse IgG, F(ab′)₂ fragment specific, 100 μl/well.

human IL6R-Fc protein [4] = molecular target: T3, human IL6R-Fc protein; test: benchmark blocking ELISA: antibody pre-incubated with biotin-labeled human IL6R-Fc, added to plate-coated Tocilizumab (competitor: Tocilizumab)
human IL6R-Fc protein [5] = molecular target: T3, human IL6R-Fc protein; test: ligand blocking ELISA: antibody pre-incubated with biotin-labeled human IL6R-Fc, added to plate-coated human IL6 (blocked ligand: human IL6)
[6] = molecular target: T1, recombinant human IL6R-his; test: SPR Biacore T200; antibody captured on Protein G chip, antigen in flow, 1:1 fit
Experimental: as §1

macaca IL6R-his protein = molecular target: T2, macaca IL6R-his protein; test: as above
Experimental: as §1

[7] = molecular target: T1, recombinant human IL6R-his; test: SPR Biacore; antibody captured by anti-human IgG on CM5, human IL6R-his at 100 nM
Experimental: as §1
The recombinant human IL6R-his (amino acid sequence set forth in SEQ ID NO: 44) at the concentration of 100 nM instead of serially diluted recombinant human IL6R-his, was flowed onto the chip at a flow rate of 30 μL/min.

Row | Binder | Kd [2] | EC50 (human IL6R-Fc protein [3]) | IC50 (human IL6R-Fc protein [4]) | IC50 (human IL6R-Fc protein [5]) | Kd [7] | also measured
1 | humanized antibody hu1H7-V5 (antibody, human IgG1, kappa, V domains shown, Human IgG1 / kappa) VH: QVQLVQSGAEVKKPGASVKVSCKASGYTFTNYWMHWVRQAPGQGLEWIGEINPTNGRTNYNENFKSRVTLTVDTSTSTVYMELSSLRSEDTAVYYCARLNTHYVFDSWGQGTLVTVSS VL: EIVLTQSPGTLSLSPGERATLSCSVSSSISSNYLHWYQQKPGLSPRLLISRTSTLASGIPARFSGSGSGTEYTLTISRMQSEDFAVYYCQQGSGIPFTFGQGTKLEIKR |  |  |  |  |  | Kd [1]: 0.526 nM; koff [1]: 0.000195 s⁻¹; kon [1]: 370000 M⁻¹ s⁻¹
2 | Tocilizumab (antibody, human IgG1, kappa, V domains shown, In house made; also called benchmark; Actemra) VH: QVQLQESGPGLVRPSQTLSLTCTVSGYSITSDHAWSWVRQPPGRGLEWIGYISYSGITTYNPSLKSRVTMLRDTSKNQFSLRLSSVTAADTAVYYCARSLARTTAMDYWGQGSLVTVSS VL: DIQMTQSPSSLSASVGDRVTITCRASQDISSYLNWYQQKPGKAPKLLIYYTSRLHSGVPSRFSGSGSGTDFTFTISSLQPEDIATYYCQQGNTLPYTFGQGTKVEIKR | 3.81 nM | 0.18 nM | 0.77 nM | 0.616 nM | 3.26 nM | Kd [6]: 3.26 nM; Kd (macaca IL6R-his protein): 3.8 nM
3 | mouse anti-IL6R monoclonal antibody 1H9 (antibody, V domains shown, Mouse hybridoma mAb) VH: QVQLQQPGAELVKPGASVKLSCKASGYTFTSYWMHWVKLRPGQGLEWIGEINPTNGRTNYYEKFKNRATLTADKSSSTAYMQLSSLTFEDSAVYFCAKFHYSRWYFDVWGTGTTVTVSS VL: DIVMTQSQKFMSTSVGDRVSITCKASQNVGTAVVWYQQKPGQSPKLLINPASNRYTGVPDRFTGSGSGTDFTLTISNMQSEDLADYFCQQYSSYPLTFGAGTKLELK |  | 0.0834 nM | 0.394 nM | 0.274 nM |  | 
4 | Chimeric 1H7 (antibody, human IgG1, kappa, V domains shown, Mouse variable regions on human IgG1 / human kappa constant regions; also called chimeric antibody 1H7) VH: QVQLQQPGTELVKPGASVKLSCKASGYTFTNYWMHWVKQRPGQGLDWIGEINPTNGRTNYNENFKSKATLTVDKSSSTAYMQLSSLTSEDSAVYYCARLNTHYVFDSWGQGTTLTLSS VL: EIVLTQSPTTLAASPGEKITFTCSVSSSISSNYLHWYQQKPGFSPKLLISRTSTLASGVPARFSGSGSGTSYSLTIGTMEAEDVATYYCQQGSGIPFTFGSGTKLELKR | 0.604 nM |  |  |  | 0.4 nM | koff [2]: 0.000123 s⁻¹; kon [2]: 204000 M⁻¹ s⁻¹; koff [7]: 5.21e-05 s⁻¹; kon [7]: 130000 M⁻¹ s⁻¹

Reference: patent publication US20230167182A1 (BIOSION, published 2023)
